Legend:
[1] = Azi photo-cross-linking in HEK293T, anti-Flag blot; conditions: glycan lost; control: PD-L1-Azi without NQ mutations
[2] = Azi photo-cross-linking, immunoblot; conditions: glycan lost; control: untreated PD-L1-V76Azi cells

Row | Substance | oligomerisation [1] | oligomerisation [2]
1 | PD-L1: 4NQ | decreases | –
2 | PD-L1: 5 µM tunicamycin, 24 h | – | decreases
